This note sets out measurements from the DeepSol protein solubility set.

The nature of this data set: soluble on expression in E. coli; label from the status in PepcDB or PDB records.
Turning to “MSLSDVSSNYWAAPFIQQLSQRGVIAGFPDGSFRPEEAVTRAQFAAMVNKAFQKSQQRSPINFADVPSNYWASSAIQQAYTIGFLSGYPGNRFEPNQAIPRQQVLVSLANGLEYSPIGNTESTLQYFNDASNIASYARSPMAAATEKQIVVNYPNVKFLNPTATATRAQVAAFIYQALVSSNQASAINSEGHHHHHH”, the “soluble on expression in E. coli” value is listed as “soluble”.
The entry for “MTKQVKIYHNPRCSKSRETLNLLKENGVEPEVVLYLETPADAATLRDLLKILGMNSARELMRQKEDLYKELNLADSSLSEEALIQAMVDNPKLMERPIVVANGKARIGRPPEQVLEIVG” is “not soluble”; for “MGSDKIHHHHHHMETKDLIVIGGGINGAGIAADAAGRGLSVLLLEAQDLACATSSASSKLIHGGLRYLEHYEFRLVSEALSERETLLKMAPHIIFPMRFRLPHQPHLRPAWMIRIGLFMYDNIGKRVSLPASKGLKFGADSVLKPELKQGFEYSDCWVDDARLVVLNAQEVAKRGGEVRTRTKVTRARREQGVWIVDAVDSLTGETFTWRAKGLVNATGPWVKEFFDDGLQLKSPYGIRLIKGSHIVVPRVHNQPQAYILQNKDHRIVFVIPWQDDYSIIGTTDVEYKGNPHDVKIDDNEVGYLLDVYNDHFKQQLTRDDIVWTYSGVRPLCDDESDSPQAITRDYTLSVDDDNGQAPLLSVFGGKLTTYRKLAEHALDKLHKYYPQAGKAWTKDAVLPGGDIAGTRDDYAAALRRRFNLPESLTRRYSRTYGSNSELILANVKGLSDLGEDFGHDLYEAELRYLVEKEWAVTLDDVIWRRTKLGMRFDDAQKQRISDWLVSYRQQQMAKAG” it is “not soluble”.
Under “MGSDKIHHHHHHMMELINNRGMRDWMIFIKVAEVGNLSRAARELDISISAVSKSLSRLENSIEVTLLRRDSHHLELTGAGQTAYASMKRITSSFQSLLDELRNPDKIIRGSIKFSAPAIVCEFLANKWIWEFTASYPDTKIYLDSRERSDFFSKSLEFDELVFKSGIIESEDLVYRKISPLKLVLCASPKYIRKYGRISHPGDLENHIIVGLHNHGLSGPLTLFRQDESYTISGAVNVHLSSNNLLSVLNLVLEGKGINLMTPAWLATKYLKNNELEIILPEWRVPDLPIYLVWRHRQYYSPLFQRFLSFIEDKWNNRPQIDFLNDD” stands “not soluble”; under “MIPIEIDSGSGFCFGVVNAIRHAEKQLEKSSDKLYCLGDIVHNTLEVERLGKKGLETIDYDAFSRLRGAKVLLRAHGEPPEIYRMAGENGVTIIDATCPVVLRLQNKIKSRYEATRSLGAQVVIYGKRGHAEVNGLVGQTEGTAIVIESEEELDKIDYTRPVILFSQTTKSLEGFGQIIDSISTRMQPGVTFEHHDTICRQVANRIPHIGAFATAHELVFFVAGEKSSNGKVLFGHCLAANPRSIFISSPEVIVPDMLVPLPASIGICGATSTPRWQMEEVASHIKALLLEHHHHHH”, “soluble”; under “MNFENDDIIHAPTTSSLILEERHDSELFRVYALILDGITDQVLLPGKKLTESELCRQMVCSRNTVRGALSLLAHDKIVDLQPNRGAFVHVPDLKEMQDVFNARIEMETMILNILADLPDLETRLKPLYAMIRREEEASGRGDRVGWNRLSNAFHVELARLVGNDVLFDIMNTLCARSSLIVAVAGVHREEKHAINTHTHSEHREILDLLLAGRRNRVVKILRRHLGNCMERLEKTLED”, “not soluble”.
For “MRWKRTLQLLDVHCEGEIGRVVTGGAPKIPGNTVAEQLHWMNTDPQGEALRRFLTLEPRGTPMGSVDLLLPPKHPDAHAAFVILQPDQAHASSGSNSICATTALLESGMVEMQEPETVIILETAAGLVKATATCRDGRCEKVKLTMVPSFVHELDVSIDTPEWGRVTMDISYGGIFYALVDVRQIGLTIEKANAAKLVAAGMTLKDLVNREMTVVHPEIPAISGVAYVMFRDVDADGSIRTCTTMWPGRADRSPCGTGNSANLATLYARGKVKVGDEYKSRSIIGSEFDVGLSAVTEVAGRPAVIPTIAGRGFTFGLHQVGLDPFDPLGDGFAMTDVWGPEAGNILEHHHHHH”, the “soluble on expression in E. coli” value is “soluble”.
Under “AIYVDLPNRQLKVKVADRRVISTTDAERQAVTPPGLQEAINDLVKKYTLARAFVRPSGTEDIVRVYAEANSQESADRLAYEVSLLVFQLAGGIGERPQP” stands “soluble”; under “MGSSHHHHHHGGTGENLYFQGGSGSSSSSSLPAAASLPATHATPPGALSSSVVSSSAPMCTHLPLPPPPPQPQEQQANKRSLRNDTHAGQMLREQQQMMEQLMSTGLVQAADLLEFGFSAAELRAAGLHLPPPHHRAGEQTKGGLEAAQAERMADAHGEDSRRRGVPRKRAWCDDAAQARPQKNERVAPSPVVSGAAATTLSAAETTREPQTVAKSVATPALLSEETRARSLHAAKLVEQTQSLRRHRGDQDCARWLCYDDTDDEEVSSTASTGTSSGEATAALASMARAAETLPKARCNTALAFSGLDVAVVREIAQRLQDESGHDASVESRRTREYVESRENGNTPYM”, “not soluble”.
The entry for “GHVETIKNTFLNPKSNKVLVVAHRGNWRSAPENSTAAIDSAIAMKVDIVEIDIQKTKDGQLILMHDNTLDRTTTGKGEIKNWTLADIKKLKLKDKDGKVTNYVVPTLEEALLTAKGKIMVNLDKAYDIFDDVYAILEKTETQNQVIMKGGQPIETVKREFGSYLDKVLYMPVIDLGNKEAEKIITDYLKELRPAAFEIIYSDPKNPLPPKIKQLLFKKSLIWYNTLWGSLAGNHDDNLALTDPEKSYGYLIEQLGARILQTDQPAYLLDYLRKKGWHN” is “soluble”.
Take “MGKLEDICDQYLSRKKEQDKVIEAVERCLKKGYDYEKLKDRVQEAISDPQKARKVISAVCDHYPQLRKRTRTDRDGEDRDRKRDRTDDRRKPDASVPAAVAEPQKPAEQSIEERLRAKEMMYKAQQEIEETKRKMAIAAGTLQPKAALAQAKTQMVAPGGKSLSLGRDEATMLMTHSMDKKSRMEELKARLARTTVMAKIDAMVGNSGAGVMAPLPEAVQQAEKKVQQQITKESKEPEKLIEYLDPRIQARTADRRRRGFNFHEKGEFEKLANKQRAMAKLERLQNEVSSAAQSTGISSAVKLAMVTPTGTAKMENGVPDIEWWDMLVLDKVNYDEIPAENDMERYSQTVSELVEHPISMRAPTEPLTQQYLKVYLTTKEKKKIRRQNRKEVLKEKTEKIRLGLEKAPEPKVKISNLMRVLGNEAIQDPTKMEAQVRKQMAERLKKHETLNAERKLTEDQKRAKKTKKLSEDTSTAVNVSVYRVKSLAHPSKKFKVETNAKQLQMSGAIMMHKAQNVIVVEGGPKQQKFYKNLMINRIKWSDEIIGQKKDAEKDAPGERNLCEMIWEGQVKRRNFRDFTVHTATLEKQAREFFEKHGVAQYWDLCYSTTVLLEGQDILPTA”: the “soluble on expression in E. coli” value was “not soluble”.
The entry for “MSVAVATLHAAASGAVLRRRRTYIHPQQPAADVCPQACTRICPPPPLPHGLRVRGGHLVRYTACVPAHTGSMSASSTVSDRRVCIFFDCRVAGDGKGYEELRQTVYAQCSQLLTLSYLHYQRSGTTLSATVHLVTHTRVESFATPFCATSTDHPIDSGAAGVISGLRALAAAQPDHSVNACGAAIFGNRMESVLPHVQRALGGSQQRHQLILFCSSYVSHTEATQSLSGLCLDASPHQRLRCILVDWEAVCVTVGELASNVRVYRCSRSARQLQAAMQEILSLFLLPDVRSSRRLGLQLGLQAVPVIATISHYGAFLDGRDTIGSVVATDRASSAAAPMAGGVMHQRLAETNHRHNRANAASVVERDDRDPWSTLHLRAVLEADNIDESFLMGDTWTLALDTSAASTSTLTSSSAPSWPCTASTVALWHAFCNAFLGDALVFTGEETGIEAHRHAMQRHHHFVAYFMPDRTMRVREIVPPELRFVPLPAFPTREGLREQKAYTTEMQRLREQLVSHCACASFSLDALLSSGGHGAASTP” is “not soluble”; for “MIIRETERLILREWKESDRDLFREINADEKVMEFFPFRRSHAEADAVLETINGMIRGSGYGFYAMELRETGEVMGFCGISPVMNLDPPFPIGTMEIGWRLATRFWGHGYVTEAAQSLLVMAFDEKETPEIVSFAVHDNHRSTAVMERIGLRRDPSRDFDHPRVPEETHPHLRPHVTYALTLEEWRAR” it is “not soluble”; for “MAHHHHHHMLRLTQAVLRVQSHQKKRAQHPNAGTRFGRVYNRGFVRYGFGGFGMSVYSSKKDRTFKVMPVPPPPPATTAVEQRDDFADNRGLSATTRTLSPTFRMFALEDGGVLVSHPSHAQIMRWNQRVHTEEGKAANSTVMDEYVNSRIQAIIADNTIENTSLSQWRKAHMWNVIKSHGKLQRRWGTPDFVMGARSTLYNN” it is “not soluble”.
The entry for “MIGIVMLSKIANIDAARQGLDLKVKVLSLNKKTIKNDRGETTYFYGIIGDDTGTVSFTAWSFPAAVKSGDVVEIKNCYSSLYNGKIRIYVDSRSQVVLKPDEYLEVKRTVELVKLRDLSLTTPYVSVIGRISGIKEKNYDSDRGSKIVYQGFIEDETAKVRISSFGKPLKDGEIVRVENARVSQYNGYMGISIGENSSIDNVQAQIEVGSRPIFIAEIKSPIGGVTITGFAVSVGQGSRIFTKCSICKKILEDGKCKDHPRAPVYLDIFGYFLLSDGTGSLTCYLNKDSFLPYIKMDTEEFKSQAFSMNPNMLIKKNILGKCLSVTGDLRLRDDKITMNASSIKEADADSVKDIEKTIQEEFQLEHHHHHH” is “not soluble”.
Under “ANNLPDTQSSGPAHSKETPALTAVETGATNPLVPSDTVQTRHVIQKRTRSESTVESFFARGACVAIIEVDNDAPTKRASKLFSVWKITYKDTVQLRRKLEFFTYSRFDMEFTFVVTSNYTDANNGHALNQVYQIMYIPPGAPIPGKWNDYTWQTSSNPSVFYTYGAPPARISVPYVGIANAYSHFYDGFAKVPLAGQASTEGDSLYGAASLNDFGSLAVRVVNDHNPTKLTSKIRVYMKPKHVRVWCPRPPRAVPYYGPGVDYKDGLAPLPGKGLTTY” stands “soluble”.
As for “MGSDKIHHHHHHMKTYDWIVVGGGMTGAVLAYELVKTGFSVLLLEKDAVAENATRYSYGGLAYWSGSTPLTRQLCQEARDRYNILPQELDADIELRELDLLLTIPADSDPQVTAELYAQCAVPPCLLSVPEACELELLLNPGAIAGALTVKHGHIHPQKTVQAYIQAFLRAGGELQIGEVSQVTSGGVKTTTVTYHSANVVVCAGGLSRRLLKSVGVSIKVYFTHAEIIETPPVDLRLNTLVMPANLQRFKLESTSTEVDELWNKPGNQLAPPILDAGAIQFLDGSLRLGQISRVLTDVDAYINHEESEDWLRQSISHILPILGNLPGNWHHCLVAFSSNSLPVIGVISELPGVHIFSGFSNPLVLIPPLAQRFAKFLSGTEDDIIPQFSDFLILTGS”, the “soluble on expression in E. coli” value was “not soluble”.
For the sequence “MSLATMQDVATLAGVAPMTVSNCYRVPDKVHPQTLARVLEAAAKLGYTRNRIAGNLASGRSQVVGVLVPSLENSNFIGMIQGLEDRLHQLDHQLMLAVTPTADRELDSIRTFIERRIDGVVLTDVQHSRDTVDLLRNARLPTVETWSLKGPFIDMGVGFSLYDAAFDMTNLMIEAGYRRIGFAGFTPASTERFLERQRGFEDALRRANLRHDVHAYTEQSEGFAGGRITLNALLREEPELDGVFCGTDILAAGMIFECMRRGWRVPGRIGIAGYGNYQIASEITPKLTTVATPGYEMGVAAAEMLVGRLVGAAPAPVIRDVGYRLISGASEGHHHHHH”, the “soluble on expression in E. coli” value was “not soluble”.
Regarding “MTERFFAPCPRGLETVLAAELERLDATSIQASPGGVGFHGNWQTCYRANLESRIASRILWQIAKDQYRSEADIYDLTHSLPWQDWFEPRLSIKVNLAAIKCPLRSLDFVTLRIKDAVCDKFRAIHGKRPDIDTVAPDMRIHGFLNAQEFTLYLDTSGEALFKRGLRQTQGEAPLRENLAAGILALTGWQPGTPLLDPMCGSGTLLLEAAQIACRIAPGSGRQFAFEQLKLFDARSWKKLKQTATERQHERTFQSIYGSDLYGSALAHTRNNLAAAGLAECVTLKQANVLEISAPAETGILVSNPPYGVRIGDHQMLAEFYPRLGDVLKQRFSGWRAFLLTADPLLAKSIRLTPSRRTPLFNGALECRLLEYRLVAGSMRREKQPSSESSTNQPIT”, the “soluble on expression in E. coli” value is on record as “not soluble”.
